Experimental data taken from patent US20260001928A1 (CORTERIA PHARMACEUTICALS, priority 2022, published 2026).
*1 amine or outer side, *2 acyl side, *3 side chain or, on linkers, in order; H or OH if unused. Primed or numbered codes have the meaning given here. Where no end group is shown, it is not given here. Side-chain parts run from the residue outwards. [ ]: non-standard residue; d: D form. The star is where a group is joined. Thp′ = 4-amino-tetrahydro-2H-pyran-4-yl-acetic acid, O=C(CC1(N[*:1])CCOCC1)[*:2]; C18 diacid = O=C(O)CCCCCCCCCCCCCCCCC(=O)*; C16 diacid = O=C(O)CCCCCCCCCCCCCCC(=O)*; γGlu = O=C(O)[C@H](CCC(=O)[*:2])N[*:1]; NMeI = CC[C@H](C)[C@H](NC)C(=O)O; Api = NC1(C(=O)O)CCNCC1; Aib = CC(C)(N)C(=O)O

T1: CRF1R receptor (UniProt P34998 24-415, limits assumed)
T1 sequence (looked up): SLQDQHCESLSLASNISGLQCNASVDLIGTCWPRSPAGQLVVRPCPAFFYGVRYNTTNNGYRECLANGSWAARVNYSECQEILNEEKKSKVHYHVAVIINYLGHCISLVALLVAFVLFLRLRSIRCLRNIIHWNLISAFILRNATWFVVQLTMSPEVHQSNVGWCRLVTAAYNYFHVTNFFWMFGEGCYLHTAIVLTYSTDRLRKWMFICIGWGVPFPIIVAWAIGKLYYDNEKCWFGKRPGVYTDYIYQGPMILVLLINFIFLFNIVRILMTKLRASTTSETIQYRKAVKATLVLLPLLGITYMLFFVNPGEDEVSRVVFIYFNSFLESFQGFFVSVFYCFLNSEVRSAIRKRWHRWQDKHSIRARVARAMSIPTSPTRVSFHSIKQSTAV


Experiments:
[1] = molecular target: human corticotropin-releasing factor 2a (CRF2a receptor) (human), Q13324; test: cell-based or functional assay
Sequence of human corticotropin-releasing factor 2a (CRF2a receptor) (human), Q13324 (Q13324 20-411): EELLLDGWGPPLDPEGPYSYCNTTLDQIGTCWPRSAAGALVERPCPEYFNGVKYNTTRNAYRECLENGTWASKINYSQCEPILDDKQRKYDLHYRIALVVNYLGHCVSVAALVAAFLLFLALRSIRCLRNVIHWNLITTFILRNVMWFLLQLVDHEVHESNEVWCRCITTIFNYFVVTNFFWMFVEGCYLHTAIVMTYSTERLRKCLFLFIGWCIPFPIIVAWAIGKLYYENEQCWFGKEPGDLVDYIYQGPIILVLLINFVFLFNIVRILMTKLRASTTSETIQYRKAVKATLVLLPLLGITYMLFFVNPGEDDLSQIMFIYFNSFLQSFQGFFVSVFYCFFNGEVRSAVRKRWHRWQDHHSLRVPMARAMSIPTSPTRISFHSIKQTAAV

CRF1R receptor = molecular target: T1, CRF1R receptor; test: cell-based or functional assay

Row | Binder | EC50 [nM] (cAMP) [1] | EC50 (CRF1R receptor) | Emax (% I) (CRF1R receptor)
1 | [NMeI]VLSLD[dV]PIKLK([γGlu-C18 diacid])QILLKQERQKKQREQAEKNAQILEQV-NH2 (N-terminus assumed; SMILES CC[C@H](C)[C@H](NC)C(=O)N[C@H](C(=O)N[C@@H](CC(C)C)C(=O)N[C@@H](CO)C(=O)N[C@@H](CC(C)C)C(=O)N[C@@H](CC(=O)O)C(=O)N[C@@H](C(=O)N1CCC[C@H]1C(=O)N[C@H](C(=O)N[C@@H](CCCCN)C(=O)N[C@@H](CC(C)C)C(=O)N[C@@H](CCCCNC(=O)CC[C@H](NC(=O)CCCCCCCCCCCCCCCCC(=O)O)C(=O)O)C(=O)N[C@@H](CCC(N)=O)C(=O)N[C@H](C(=O)N[C@@H](CC(C)C)C(=O)N[C@@H](CC(C)C)C(=O)N[C@@H](CCCCN)C(=O)N[C@@H](CCC(N)=O)C(=O)N[C@@H](CCC(=O)O)C(=O)N[C@@H](CCCNC(=N)N)C(=O)N[C@@H](CCC(N)=O)C(=O)N[C@@H](CCCCN)C(=O)N[C@@H](CCCCN)C(=O)N[C@@H](CCC(N)=O)C(=O)N[C@@H](CCCNC(=N)N)C(=O)N[C@@H](CCC(=O)O)C(=O)N[C@@H](CCC(N)=O)C(=O)N[C@@H](C)C(=O)N[C@@H](CCC(=O)O)C(=O)N[C@@H](CCCCN)C(=O)N[C@@H](CC(N)=O)C(=O)N[C@@H](C)C(=O)N[C@@H](CCC(N)=O)C(=O)N[C@H](C(=O)N[C@@H](CC(C)C)C(=O)N[C@@H](CCC(=O)O)C(=O)N[C@@H](CCC(N)=O)C(=O)N[C@H](C(N)=O)C(C)C)[C@@H](C)CC)[C@@H](C)CC)[C@@H](C)CC)C(C)C)C(C)C) [SEQ ID NO 24] | 0.04 nM | – | 37%
2 | [NMeI]VLSLD[dV]PIKLK([γGlu-C18 diacid])QILLKQERQKKQREQAEKN[Aib]QILEQV-NH2 (N-terminus assumed; SMILES CC[C@H](C)[C@H](NC)C(=O)N[C@H](C(=O)N[C@@H](CC(C)C)C(=O)N[C@@H](CO)C(=O)N[C@@H](CC(C)C)C(=O)N[C@@H](CC(=O)O)C(=O)N[C@@H](C(=O)N1CCC[C@H]1C(=O)N[C@H](C(=O)N[C@@H](CCCCN)C(=O)N[C@@H](CC(C)C)C(=O)N[C@@H](CCCCNC(=O)CC[C@H](NC(=O)CCCCCCCCCCCCCCCCC(=O)O)C(=O)O)C(=O)N[C@@H](CCC(N)=O)C(=O)N[C@H](C(=O)N[C@@H](CC(C)C)C(=O)N[C@@H](CC(C)C)C(=O)N[C@@H](CCCCN)C(=O)N[C@@H](CCC(N)=O)C(=O)N[C@@H](CCC(=O)O)C(=O)N[C@@H](CCCNC(=N)N)C(=O)N[C@@H](CCC(N)=O)C(=O)N[C@@H](CCCCN)C(=O)N[C@@H](CCCCN)C(=O)N[C@@H](CCC(N)=O)C(=O)N[C@@H](CCCNC(=N)N)C(=O)N[C@@H](CCC(=O)O)C(=O)N[C@@H](CCC(N)=O)C(=O)N[C@@H](C)C(=O)N[C@@H](CCC(=O)O)C(=O)N[C@@H](CCCCN)C(=O)N[C@@H](CC(N)=O)C(=O)NC(C)(C)C(=O)N[C@@H](CCC(N)=O)C(=O)N[C@H](C(=O)N[C@@H](CC(C)C)C(=O)N[C@@H](CCC(=O)O)C(=O)N[C@@H](CCC(N)=O)C(=O)N[C@H](C(N)=O)C(C)C)[C@@H](C)CC)[C@@H](C)CC)[C@@H](C)CC)C(C)C)C(C)C) [SEQ ID NO 23] | 0.33 nM | – | 35%

Now from value to binder:

Row | EC50 [nM] (cAMP) [1] | EC50 (CRF1R receptor) | Emax (% I) (CRF1R receptor) | Binder
3 | 0.41 nM | > 250 nM | 6% | Ac-IVLSLD[dV]PIKLK([γGlu-C16 diacid])KILLEQEKQKKQREQAETN[Thp′]QILAQV-NH2 [SEQ ID NO 58]
4 | 0.16 nM | – | 32% | [NMeI]VLSLD[dV]PIKLK([γGlu-C18 diacid])KILLEQEKQKKQREQAETN[Api]QILAQV-NH2 (N-terminus assumed; SMILES CC[C@H](C)[C@H](NC)C(=O)N[C@H](C(=O)N[C@@H](CC(C)C)C(=O)N[C@@H](CO)C(=O)N[C@@H](CC(C)C)C(=O)N[C@@H](CC(=O)O)C(=O)N[C@@H](C(=O)N1CCC[C@H]1C(=O)N[C@H](C(=O)N[C@@H](CCCCN)C(=O)N[C@@H](CC(C)C)C(=O)N[C@@H](CCCCNC(=O)CC[C@H](NC(=O)CCCCCCCCCCCCCCCCC(=O)O)C(=O)O)C(=O)N[C@@H](CCCCN)C(=O)N[C@H](C(=O)N[C@@H](CC(C)C)C(=O)N[C@@H](CC(C)C)C(=O)N[C@@H](CCC(=O)O)C(=O)N[C@@H](CCC(N)=O)C(=O)N[C@@H](CCC(=O)O)C(=O)N[C@@H](CCCCN)C(=O)N[C@@H](CCC(N)=O)C(=O)N[C@@H](CCCCN)C(=O)N[C@@H](CCCCN)C(=O)N[C@@H](CCC(N)=O)C(=O)N[C@@H](CCCNC(=N)N)C(=O)N[C@@H](CCC(=O)O)C(=O)N[C@@H](CCC(N)=O)C(=O)N[C@@H](C)C(=O)N[C@@H](CCC(=O)O)C(=O)N[C@H](C(=O)N[C@@H](CC(N)=O)C(=O)NC1(C(=O)N[C@@H](CCC(N)=O)C(=O)N[C@H](C(=O)N[C@@H](CC(C)C)C(=O)N[C@@H](C)C(=O)N[C@@H](CCC(N)=O)C(=O)N[C@H](C(N)=O)C(C)C)[C@@H](C)CC)CCNCC1)[C@@H](C)O)[C@@H](C)CC)[C@@H](C)CC)C(C)C)C(C)C) [SEQ ID NO 141]
5 | 0.05 nM | – | 10% | [NMeI]VLSLD[dV]PIKLK([γGlu-C18 diacid])KILLEQEKQKKQREQAETNAQILAQV-NH2 (N-terminus assumed; SMILES CC[C@H](C)[C@H](NC)C(=O)N[C@H](C(=O)N[C@@H](CC(C)C)C(=O)N[C@@H](CO)C(=O)N[C@@H](CC(C)C)C(=O)N[C@@H](CC(=O)O)C(=O)N[C@@H](C(=O)N1CCC[C@H]1C(=O)N[C@H](C(=O)N[C@@H](CCCCN)C(=O)N[C@@H](CC(C)C)C(=O)N[C@@H](CCCCNC(=O)CC[C@H](NC(=O)CCCCCCCCCCCCCCCCC(=O)O)C(=O)O)C(=O)N[C@@H](CCCCN)C(=O)N[C@H](C(=O)N[C@@H](CC(C)C)C(=O)N[C@@H](CC(C)C)C(=O)N[C@@H](CCC(=O)O)C(=O)N[C@@H](CCC(N)=O)C(=O)N[C@@H](CCC(=O)O)C(=O)N[C@@H](CCCCN)C(=O)N[C@@H](CCC(N)=O)C(=O)N[C@@H](CCCCN)C(=O)N[C@@H](CCCCN)C(=O)N[C@@H](CCC(N)=O)C(=O)N[C@@H](CCCNC(=N)N)C(=O)N[C@@H](CCC(=O)O)C(=O)N[C@@H](CCC(N)=O)C(=O)N[C@@H](C)C(=O)N[C@@H](CCC(=O)O)C(=O)N[C@H](C(=O)N[C@@H](CC(N)=O)C(=O)N[C@@H](C)C(=O)N[C@@H](CCC(N)=O)C(=O)N[C@H](C(=O)N[C@@H](CC(C)C)C(=O)N[C@@H](C)C(=O)N[C@@H](CCC(N)=O)C(=O)N[C@H](C(N)=O)C(C)C)[C@@H](C)CC)[C@@H](C)O)[C@@H](C)CC)[C@@H](C)CC)C(C)C)C(C)C) [SEQ ID NO 138]
